In patent publication US9340579B2, “DPP-4 inhibitor” (NIPPI, INCORPORATED, priority 2011, dated 2016):
Square brackets hold non-standard residues; d marks the D form. Ends that are not written are not given here. Hyp = O=C(O)[C@@H]1C[C@@H](O)CN1

Biological target: DPP-4 (manufactured by Sigma, derived from porcine kidney) (porcine, UniProt P22411 38-766, limits assumed)
Experiment: cell-based or functional assay

Chain of DPP-4 (manufactured by Sigma, derived from porcine kidney) (P22411 38-766 limits assumed): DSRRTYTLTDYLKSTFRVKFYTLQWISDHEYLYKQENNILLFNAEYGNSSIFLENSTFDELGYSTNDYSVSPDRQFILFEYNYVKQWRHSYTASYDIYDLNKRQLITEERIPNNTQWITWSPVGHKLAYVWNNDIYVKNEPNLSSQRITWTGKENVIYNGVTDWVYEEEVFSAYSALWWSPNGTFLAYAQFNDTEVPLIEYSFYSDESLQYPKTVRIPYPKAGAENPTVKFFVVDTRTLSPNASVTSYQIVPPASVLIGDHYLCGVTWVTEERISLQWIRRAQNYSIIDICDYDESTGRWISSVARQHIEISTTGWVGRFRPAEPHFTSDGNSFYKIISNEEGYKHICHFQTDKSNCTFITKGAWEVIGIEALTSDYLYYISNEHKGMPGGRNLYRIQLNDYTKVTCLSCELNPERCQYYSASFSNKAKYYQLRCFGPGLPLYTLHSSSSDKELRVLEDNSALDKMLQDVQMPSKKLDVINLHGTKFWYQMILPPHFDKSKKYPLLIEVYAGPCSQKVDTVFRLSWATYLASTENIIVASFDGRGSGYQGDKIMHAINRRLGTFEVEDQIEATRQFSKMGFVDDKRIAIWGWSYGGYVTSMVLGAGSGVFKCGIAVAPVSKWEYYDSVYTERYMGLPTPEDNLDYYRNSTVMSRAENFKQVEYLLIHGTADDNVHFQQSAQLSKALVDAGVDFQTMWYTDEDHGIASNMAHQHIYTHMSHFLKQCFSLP

Row | IC50 value [µM] | Inhibition rate (%) at 0.35 mg/ml time [%] | Binder
1 |  | 0 | Pro-[Hyp] [Pro-Hyp]
2 | 4640 | 27.2 | Pro-[Hyp]-Gly [Pro-Hyp-Gly]

More lines, now with the values behind:

Row | Binder | IC50 value [µM] | Inhibition rate (%) at 0.35 mg/ml time [%]
3 | L[Hyp]GPA [Leu-Hyp-Gly-Pro-Ala] | 830 | 52.1
4 | Ala-[Hyp]-Gly [Ala-Hyp-Gly] | 9450 | 14.6
5 | Ala-[Hyp] [Ala-Hyp] |  | 0
6 | [Hyp]-Gly [Hyp-Gly] |  | 0
7 | Phe-[Hyp] [Phe-Hyp] |  | 0
8 | Ile-[Hyp]-Gly [Ile-Hyp-Gly] | 500 | 71
